Measurements reported in paper PMC1885261, “Structure of the dimeric N-glycosylated form of fungal β-N-acetylhexosaminidase revealed by computer modeling, vibrational spectroscopy, and biochemical studies” (BMC Structural Biology, 2007).

Substrate: CC(=O)N[C@H]1[C@H](Oc2ccc([N+](=O)[O-])cc2)O[C@H](CO)[C@@H](O)[C@@H]1O
Assay: 4-nitrophenyl substrate hydrolysis assay
Assay type: biochemical, Aspergillus oryzae
Conditions: substrate concentrations around Km

| Protein | Km (native N-glycosylated form) [mM] | Km (deglycosylated form) [mM] |
| --- | --- | --- |
| β-N-acetylhexosaminidase (native form) (Aspergillus oryzae) (protein, native enzyme purified from culture medium of A. oryzae; secreted, fully N-glycosylated (six sites), dimer; GH20) chain 1: VGVNPLPAPREISWGSSGPKSIAGELQLRTDSDSADGIVADAWNRAWETIVALRWVPAATEAPISSFEPFPTPTAGAS chain 2: ASNSLQYVNVQVKDIEADLQHGVDESYTLDVEEDSDTITINAETVWGALHAFTTLQQLVISDGHGGLIIEEPVNIKDSPLYPYRGIMLDTGRNFVSLPKIFEQLEGMSLSKLNVLHWHIDDAQSWPIWVDVYPEMVKDAYSPHEIYSRNDVRNIVNYARARGIRVIPEIDMPSHSSSGWKQVDPEMVTCTDSWWSNDDWPLHTAVEPNPGQLDIIYNKTYEVVGNVYKELSDIFPDHWFHVGGDEIQPNCFNFSTHVTKWFAEDPSRTYHDLAQYWVDHAVPIFQNYSQERRLVMWEDIALSADNAHDVPKNIVMQSWNNGLEYISNLTARGYDVIVSSSDFLYLDCGHGGFVTNDPRYNVMANPDANTPNFNYGGNGGSWCAPYKTWQRIYDYDFTLNLTETQAKHIIGATAPLWGEQVDDINVSSMFWPRAAALAELVWSGNRDANGNKRTTEMTQRILNFREYLVANGVQAQALVPKYCLQHPHACDLYRNQAAIQ | 0.45 |  |
| deglycosylated β-N-acetylhexosaminidase (Aspergillus oryzae) (protein, same polypeptide as P1, native purification, enzymatically N-deglycosylated under native conditions (endoglycosidase H, leaving core GlcNAc, or N-glycanase)) chain 1: VGVNPLPAPREISWGSSGPKSIAGELQLRTDSDSADGIVADAWNRAWETIVALRWVPAATEAPISSFEPFPTPTAGAS chain 2: ASNSLQYVNVQVKDIEADLQHGVDESYTLDVEEDSDTITINAETVWGALHAFTTLQQLVISDGHGGLIIEEPVNIKDSPLYPYRGIMLDTGRNFVSLPKIFEQLEGMSLSKLNVLHWHIDDAQSWPIWVDVYPEMVKDAYSPHEIYSRNDVRNIVNYARARGIRVIPEIDMPSHSSSGWKQVDPEMVTCTDSWWSNDDWPLHTAVEPNPGQLDIIYNKTYEVVGNVYKELSDIFPDHWFHVGGDEIQPNCFNFSTHVTKWFAEDPSRTYHDLAQYWVDHAVPIFQNYSQERRLVMWEDIALSADNAHDVPKNIVMQSWNNGLEYISNLTARGYDVIVSSSDFLYLDCGHGGFVTNDPRYNVMANPDANTPNFNYGGNGGSWCAPYKTWQRIYDYDFTLNLTETQAKHIIGATAPLWGEQVDDINVSSMFWPRAAALAELVWSGNRDANGNKRTTEMTQRILNFREYLVANGVQAQALVPKYCLQHPHACDLYRNQAAIQ |  | 0.71 |
